Changes are numbered by the printed parent chain. Names may count otherwise.
B1: PRO2230 (scFv 37-20-B03-sc09.1) (scFv)
scFv: DIQMTQSPASLSASVGDRVTITCQASQSIGTYLAWYQQKPGKPPKLLIYRAFILASGVPSRFSGSGSGTDFTLTISSLQPEDFATYYCQSNFYSDSTTIGPNAFGTGTKVTVLGGGGGSGGGGSGGGGSGGGGSEVQLVESGGGLVQPGGSLRLSCAASGFSFNSDYWIYWVRQAPGKGLEWIASIYGGSSGNTQYASWAQGRFTISRDNSKNTVYLQMNSLRAEDTAVYFCARGYVDYGGATDLWGQGTLVTVSS
notes: also called PRO2230 wt; a-PD-L1 wt
B2: PRO3317 (scFv 37-20-B03-sc09.1_(T101Q)) (scFv)
scFv: B1 scFv with T227Q
notes: PRO2230 variant; VH substitution, AHo numbering; also called PRO2230 T101Q
B3: PRO2903 (scFv 37-20-B03-sc09.1_(L12R, V103T, L144Q)) (scFv)
scFv: B1 scFv with L145R, V229T, L251Q
notes: VH substitutions, AHo numbering; also called PRO2230-L12R-V103T-L144Q
B4: PRO3338 (scFv 37-20-B03-sc09.1_(T101K, T146Q)) (scFv)
scFv: B1 scFv with T227K, T253Q
notes: PRO2230 variant; VH substitutions, AHo numbering; also called PRO2230 T101K-T146Q
B5: PRO2947 (scFv 37-20-B03-sc09.1_(T146K)) (scFv)
scFv: B1 scFv with T253K
notes: PRO2230 variant; VH substitution, AHo numbering; also called PRO2230 T146K
B6: PRO2986 (scFv 37-20-B03-sc09.1_(T146A)) (scFv)
scFv: B1 scFv with T253A
notes: PRO2230 variant; VH substitution, AHo numbering; also called PRO2230 T146A
B7: PRO2935 (scFv 37-20-B03-sc09.1_(L144A, S148N)) (scFv)
scFv: B1 scFv with L251A, S255N
notes: PRO2230 variant; VH substitutions, AHo numbering; also called PRO2230 L144A-S148N
B8: PRO2949 (scFv 37-20-B03-sc09.1_(T146E)) (scFv)
scFv: B1 scFv with T253E
notes: PRO2230 variant; VH substitution, AHo numbering; also called PRO2230 T146E
B9: PRO2914 (scFv 37-20-B03-sc09.1_(T101S, L144A, T146Q)) (scFv)
scFv: B1 scFv with T227S, L251A, T253Q
notes: PRO2230 variant; VH substitutions, AHo numbering; also called PRO2230 T101S-L144A-T146Q
B10: PRO2987 (scFv 37-20-B03-sc09.1_(P15A)) (scFv)
scFv: B1 scFv with P148A
notes: PRO2230 variant; VH substitution, AHo numbering; also called PRO2230 P15A
B11: PRO3314 (scFv 37-20-B03-sc09.1_(T101Q, T146Q)) (scFv)
scFv: B1 scFv with T227Q, T253Q
notes: PRO2230 variant; VH substitutions, AHo numbering; also called PRO2230 T101Q-T146Q
B12: PRO3339 (scFv 37-20-B03-sc09.1_(T101N, T146Q)) (scFv)
scFv: B1 scFv with T227N, T253Q
notes: PRO2230 variant; VH substitutions, AHo numbering; also called PRO2230 T101N-T146Q
B13: PRO3310 (scFv 37-20-B03-sc09.1_(L12R, T101R, L144A, T146Q)) (scFv)
scFv: B1 scFv with L145R, T227R, L251A, T253Q
notes: PRO2230 variant; VH substitutions, AHo numbering; also called PRO2230 L12R-T101R-L144A-T146Q
B14: PRO3306 (scFv 37-20-B03-sc09.1_(L12A, T101R, L144A, T146Q)) (scFv)
scFv: B1 scFv with L145A, T227R, L251A, T253Q
notes: PRO2230 variant; VH substitutions, AHo numbering; also called PRO2230 L12A-T101R-L144A-T146Q
B15: PRO2950 (scFv 37-20-B03-sc09.1_(T146Q)) (scFv)
scFv: B1 scFv with T253Q
notes: PRO2230 variant; VH substitution, AHo numbering; also called PRO2230 T146Q

target: pre-existing anti-drug antibodies (ADA) present in human sera; assay: pre-existing ADA ELISA, scFv coated, human sera unspiked vs spiked

Binder	Mean No of serum samples >30% inhibition (30% CCP) with SCP (serum samples)	No of serum samples >30% inhibition (30% CCP) without SCP (serum samples)
B1	9	18
B2	1	7
B3	5	5
B4	0	0
B5	1	2
B6	8	2
B7	8	8
B8	1	2
B9	5	5
B10	2	7
B11	1	4
B12	0	0
B13	3	6
B14	0	7
B15	4	4

target: T1, human a-PD-L1 Fc (Sino Biological, 10084-H02H, LC11NO2402) (human, UniProt Q9NZQ7 19-239); assay: SPR, PD-L1 Fc immobilised, scFv analyte, 1:1 fit
T1 construct: Bought Fc fusion immobilised on the SPR chip; Printed as 'a-PD-L1 Fc' but used as the antigen (ligand) for the anti-PD-L1 scFvs; also called Human PD-L1; not shown: Fc part
Method: The mutation variants were then injected at concentrations of 10 nM, 2 nM and 0.4 nM over the ligand-immobilized and reference spots. The wild type variants were used as a control, while an empty spot was used as reference.
After each cycle with analyte, the surface was regenerated with a 3M MgCl₂ solution, thereby allowing the next analyte cycle to have only free ligand available. Binding affinity KD was globally calculated by the Bruker SPR software based on the binding association (kₒₙ) and dissociation (Koff) rate, by fitting a 1:1 Langmuir model to the curves obtained by the cycles with the three different concentrations of the analyte.

T1 sequence (Q9NZQ7 19-239 limits assumed): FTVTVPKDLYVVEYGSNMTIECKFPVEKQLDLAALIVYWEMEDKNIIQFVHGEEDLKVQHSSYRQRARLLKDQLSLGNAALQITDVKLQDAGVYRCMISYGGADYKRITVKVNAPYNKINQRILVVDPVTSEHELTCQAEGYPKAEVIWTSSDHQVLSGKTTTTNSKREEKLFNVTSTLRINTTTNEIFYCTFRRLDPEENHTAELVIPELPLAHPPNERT

Binder	Kd [nM]	n-fold to wt [fold]
B1	0.049	1
B2	0.042	0.9
B3	0.053	1.1
B4	0.021	0.4
B5	0.041	0.8
B6	0.069	1.4
B7	0.091	1.9
B8	0.056	1.1
B9	0.025	0.5
B10	0.048	1
B11	0.027	0.6
B12	0.035	0.7
B13	0.038	0.8
B14	0.018	0.4
B15	0.064	1.3
